Data published in paper PMC9404779, “Oxidative Implications of Substituting a Conserved Cysteine Residue in Sugar Beet Phytoglobin BvPgb 1.2” (Antioxidants, 2022).
Structures can show the parent of a compound that is named as a salt. Values belong to the compound of their own block, whether it stands above or below them.

Experiments:
[1] = biological target: T1, BvPgb1.2 (Beta vulgaris, UniProt V5QR23); test: peroxidase assay, absorbance of ABTS radical cation at […] nm; type: biochemical; conditions: 10 mM H2O2, 5 mM ABTS, 50 mM Tris-HCl pH 8.5; protein incubated at 22 or 37 °C
T1 construct: gene Bv9_224250_aayd.t2; recombinant from E. coli BL21(DE3), pET-DEST42
T1 sequence (V5QR23 1-171): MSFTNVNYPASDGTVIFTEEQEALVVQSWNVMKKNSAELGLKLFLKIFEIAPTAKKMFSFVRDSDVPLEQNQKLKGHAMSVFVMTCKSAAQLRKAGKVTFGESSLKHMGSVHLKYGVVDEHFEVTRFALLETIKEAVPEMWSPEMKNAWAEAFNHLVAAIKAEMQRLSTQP

[2] = biological target: BvPgb1.2 Cys86Ala mutant (Beta vulgaris (sugar beet)); test: SEC; analytical SEC, Superdex 75 10/300 GL, 50 mM NaP with 150 mM NaCl pH 7.0, 100 µL of 1 mg/mL protein; MW from retention volume on a calibration curve; dimer of monomers
[3] = biological target: Wildtype (WT) BvPgb1.2, Class 1 phytoglobin from sugar beet (Beta vulgaris) (Beta vulgaris (sugar beet)); test: as above

Compound: CCn1c(=NN=c2sc3cc(S(=O)(=O)O)ccc3n2CC)sc2cc(S(=O)(=O)O)ccc21 [2,2′-azino-di-(3-ethylbenzthiazolinesulfonic acid) diammonium salt]
peroxidase assay, absorbance of ABTS radical cation at 415 nm [1]: The detectable radical formation of ABTS was used in this study to quantify this

degree of dimerization [2]: > 99% | stoichiometry N [2]: 2
Compound: BvPgb1.2 Cys86Ala mutant (natural protein)

degree of dimerization [3]: > 99% | stoichiometry N [3]: 2
Compound: Wildtype (WT) BvPgb1.2, Class 1 phytoglobin from sugar beet (Beta vulgaris) (natural protein)
